One experiment deals with T1, human OX40-CRD-avi-his (human, UniProt P43489 29-170, limits assumed).
T1 construct: Only the CRD region of the ECD was used
T1 sequence: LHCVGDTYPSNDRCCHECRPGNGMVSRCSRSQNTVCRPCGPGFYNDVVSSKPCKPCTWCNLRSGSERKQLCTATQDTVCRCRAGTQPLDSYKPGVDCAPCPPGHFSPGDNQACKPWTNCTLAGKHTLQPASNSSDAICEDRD
Put plainly: SPR Biacore T200, ratio of KD values.

Another experiment has as its target T2, cynomolgus OX40-ECD-his (cynomolgus).
T2 construct: extracellular domain; also called Cyno OX40
Nature of the experiment: SPR Biacore T200, ratio of KD values.

Experiment [1] deals with T3, human OX40 (TNFRSF4, CD134) on cells (human, UniProt P43489 29-277).
T3 construct: also called OX40 on HPB-ALL cells; Jurkat-NFκB-OX40 cells
T3 sequence: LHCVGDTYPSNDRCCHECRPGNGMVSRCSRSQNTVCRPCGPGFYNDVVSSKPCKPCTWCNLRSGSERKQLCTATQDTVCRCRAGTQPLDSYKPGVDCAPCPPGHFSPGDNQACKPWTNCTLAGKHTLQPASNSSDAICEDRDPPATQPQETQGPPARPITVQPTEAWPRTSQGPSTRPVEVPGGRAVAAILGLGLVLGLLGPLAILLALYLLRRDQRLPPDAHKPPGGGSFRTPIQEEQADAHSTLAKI
Put plainly: flow cytometry on OX40-expressing HPB-ALL cells; cells pre-incubated with cold MAB1, washed, then stained with a single dose of the competitor GBR 830-AF647.

The target of the next experiment is T4, mouse (mo) OX40 protein (mouse, UniProt P47741 20-211).
T4 construct: also called Mouse OX40
T4 sequence (looked up): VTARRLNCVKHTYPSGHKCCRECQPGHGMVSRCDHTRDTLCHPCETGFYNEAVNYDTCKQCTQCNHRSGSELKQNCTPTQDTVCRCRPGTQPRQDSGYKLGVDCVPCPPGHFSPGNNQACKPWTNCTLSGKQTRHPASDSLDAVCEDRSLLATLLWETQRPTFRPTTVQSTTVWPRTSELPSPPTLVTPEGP
Nature of the experiment: SPR single cycle kinetics, MAB10 captured.

In another experiment the target is T5, rat (ra) OX40 protein (rat, UniProt P15725 20-210, limits assumed).
T5 construct: also called Rat OX40
T5 sequence (looked up): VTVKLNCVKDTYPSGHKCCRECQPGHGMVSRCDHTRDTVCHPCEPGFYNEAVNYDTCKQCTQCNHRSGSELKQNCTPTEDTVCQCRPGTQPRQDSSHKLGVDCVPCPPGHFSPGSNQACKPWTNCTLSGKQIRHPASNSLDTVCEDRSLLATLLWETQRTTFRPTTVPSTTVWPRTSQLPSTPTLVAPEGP
Put plainly: SPR single cycle kinetics, MAB10 captured.

Experiment [2] concerns the target T6, Human (hu) OX40 protein (Example 5 cross reactivity) (human, UniProt P43489 29-216, limits assumed).
T6 construct: whole entry named
T6 sequence: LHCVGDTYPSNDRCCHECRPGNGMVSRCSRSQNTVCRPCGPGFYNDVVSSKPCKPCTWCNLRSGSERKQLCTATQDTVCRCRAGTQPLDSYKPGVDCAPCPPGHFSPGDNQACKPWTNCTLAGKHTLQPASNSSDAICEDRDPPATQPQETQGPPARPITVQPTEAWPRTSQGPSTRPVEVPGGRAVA
Put plainly: SPR Biacore 8K+, single cycle kinetics, MAB10 captured by anti-human Fc, OX40 analyte.

The target in experiment [3] is cynomolgus monkey (cy) OX40 protein (Example 5) (cynomolgus monkey). The description is as above.
The next experiment addresses T7, rabbit (rb) OX40 protein (rabbit).
T7 construct: also called Rabbit OX40
The description is as above.

The target of experiment [4] is T8, Human FcRn protein (Acro Biosystems, catalog NO: FCN-H52W7) (human, UniProt P55899 24-297; P61769 21-119).
T8 construct: also called huFcRn
Put plainly: SPR Biacore 8K+, antibody immobilised, FcRn analyte, pH 6.0; pH 6.0; ratio of the KD of MAB1 to that of MAB10.

The target in experiment [5] is T3, human OX40 (TNFRSF4, CD134) on cells. Nature of the experiment: flow cytometry on OX40-expressing HPB-ALL cells; cells pre-incubated with cold GBR 830, washed, then stained with a single dose of the competitor MAB1-AF647.

T8 sequence (P55899 24-297 limits assumed, chain 1 of 2): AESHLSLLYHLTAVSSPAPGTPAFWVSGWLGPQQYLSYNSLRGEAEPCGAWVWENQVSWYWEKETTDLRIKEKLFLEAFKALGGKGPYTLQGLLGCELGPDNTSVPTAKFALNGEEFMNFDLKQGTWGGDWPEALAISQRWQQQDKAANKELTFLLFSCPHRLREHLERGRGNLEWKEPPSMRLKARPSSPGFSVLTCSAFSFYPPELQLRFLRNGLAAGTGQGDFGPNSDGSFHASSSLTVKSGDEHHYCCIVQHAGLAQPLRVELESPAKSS
T8 sequence (P61769 21-119 limits assumed, chain 2 of 2): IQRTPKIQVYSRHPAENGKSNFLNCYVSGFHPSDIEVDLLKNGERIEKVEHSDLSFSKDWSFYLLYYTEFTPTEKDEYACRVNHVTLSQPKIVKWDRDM

B1: MAB1 IgG1 (antibody)
heavy: not shown
light: EIVLTQSPATLSLSPGERATLSCRASSSVSYMHWYQQKPGQAPRPWIYATSNRATGIPARFSGSGSGTDYTLTISSLEPEDFAVYYCQQFGAWPWTFGQGTKVEIKRTVAAPSVFIFPPSDEQLKSGTASVVCLLNNFYPREAKVQWKVDNALQSGNSQESVTEQDSKDSTYSLSSTLTLSKADYEKHKVYACEVTHQGLSSPVTKSFNRGEC
notes: Human IgG1, kappa
Turning to B1, the “fold increase in affinity (KD GBR 830 / KD MAB1)” value with human OX40-CRD-avi-his came to 13.4 fold; in the experiment with cynomolgus OX40-ECD-his it was 5.5 fold. Also, the “IC50 (read off the curve)” value in experiment [1] was around 0.02 µg/mL.

B2: MAB10 (antibody, human IgG1, kappa)
heavy: QVTLKESGPALVKPTQTLTLTCSFSGFSLSTSGMGVGWIRQPPGKALEWIAHIWWDDDKYYNTALKTRLTISKDTSKNQVVLTMTNMDPVDTATYYCARIDWDGFAYWGQGTLVTVSSASTKGPSVFPLAPSSKSTSGGTAALGCLVKDYFPEPVTVSWNSGALTSGVHTFPAVLQSSGLYSLSSVVTVPSSSLGTQTYICNVNHKPSNTKVDKKVEPKSCDKTHTCPPCPAPELLGGPSVFLFPPKPKDTLYITREPEVTCVVVDVSHEDPEVKFNWYVDGVEVHNAKTKPREEQYNSTYRVVSVLTVLHQDWLNGKEYKCKVSNKALPAPIEKTISKAKGQPREPQVYTLPPSRDELTKNQVSLTCLVKGFYPSDIAVEWESNGQPENNYKTTPPVLDSDGSFFLYSKLTVDKSRWQQGNVFSCSVMHEALHNHYTQKSLSLSPGK
light: EIVLTQSPATLSLSPGERATLSCRASSSVSYMHWYQQKPGQAPRPWIYATSNRATGIPARFSGSGSGTDYTLTISSLEPEDFAVYYCQQFGAWPWTFGQGTKVEIKRTVAAPSVFIFPPSDEQLKSGTASVVCLLNNFYPREAKVQWKVDNALQSGNSQESVTEQDSKDSTYSLSSTLTLSKADYEKHKVYACEVTHQGLSSPVTKSFNRGEC
notes: MAB1 with M252Y, S254T and T256E (EU numbering) in the IgG1 Fc; also called MAB1 Heavy Chain + YTE
As to B2, the binding result with mouse (mo) OX40 protein and with rat (ra) OX40 protein was “no binding” throughout. Besides, the Kd is 6.7 nM in experiment [2], 268 nM in experiment [3] and 3300 nM with rabbit (rb) OX40 protein. Moreover, the koff in [2] stood at 0.0021 s⁻¹; in experiment [3], 0.052 s⁻¹; with rabbit (rb) OX40 protein, 0.03 s⁻¹. Also, the kon came to 300000 M⁻¹ s⁻¹ in [2], 200000 M⁻¹ s⁻¹ in experiment [3] and 9000 M⁻¹ s⁻¹ with rabbit (rb) OX40 protein. Further, the “fold increase of the binding constant against MAB1” value in experiment [4] is 8.8 fold.

B3: GBR 830 (telazorlimab) (antibody, human IgG1, kappa)
heavy: not shown
light: EIVLTQSPATLSLSPGERATLSCRASSSVSYMHWYQQKPGQAPRPWIYATSNRATGIPARFSGSGSGTDYTLTISSLEPEDFAVYYCQQWSSNPWTFGQGTKVEIKRTVAAPSVFIFPPSDEQLKSGTASVVCLLNNFYPREAKVQWKVDNALQSGNSQESVTEQDSKDSTYSLSSTLTLSKADYEKHKVYACEVTHQGLSSPVTKSFNRGEC
notes: IgG1; also called Antibody 830; ISB830
For the molecule B3, the “IC50 (read off the curve)” value in [5] was around 0.2 µg/mL.

The values are drawn from patent publication US20250353921A1 (ASTRIA THERAPEUTICS, published 2025).
